The test system of data set [1] is BpsA, single module non-ribosomal peptide synthetase of Streptomyces lavendulae ATCC 11924, purified recombinant 6His-tagged protein (apo form).
Data set [2] has as its target PcpS, phosphopantetheinyl transferase of Pseudomonas aeruginosa PAO1 (Pseudomonas aeruginosa PAO1). Description: cell-based or functional assay.
Data set [3] concerns the target PP1183, putative phosphopantetheinyl transferase of Pseudomonas putida KT2440 (Pseudomonas putida KT2440). Description: cell-based or functional assay.
In data set [4] the target is Sfp, phosphopantetheinyl transferase of Bacillus subtilis subsp. spizizenii ATCC6633 (Bacillus subtilis subsp. spizizenii ATCC6633). Description: cell-based or functional assay.
Data set [5] deals with E. coli harbouring an activating PPTase. Description: In vivo pigment synthesis activity of BpsA derivatives relative to wild type BpsA. In kind it is cell-based. To be noted: for Relative activity (in vivo pigment synthesis relative to wild type BpsA): E. coli, supernatant A590. The source says: A detailed description of the method used for generation of mBpsA derivatives is given in Section 4.15. Briefly, a plasmid containing bpsA lacking its native T-domain (pBPSA3) was created. This plasmid contained restriction enzyme sites which were subsequently used to introduce foreign T-domain sequence. Foreign T-domains were then amplified from the chromosomal DNA of their host organisms and introduced into pBPSA3 to generate mBpsA derivatives which contained T-domains from foreign NRPS proteins in place of the native T-domain. Only the final embodiment of the T-domain swapping platform is described in this application. This embodiment is the result of rational in-silico design as well as trial and error, which are not described. Using this final platform, five different mBpsA derivatives were generated and subsequently assessed for in vivo pigment synthesis capacity in E. coli harbouring an activating PPTase. Table 3.1 gives a summary of the mBpsA derivatives generated as well as their in vivo pigment synthesis activities relative to wild type BpsA. The derivation of in vivo pigment synthesis activity was as described in 4.10.
For second tier screening, up to 45 improved clones, along with a positive and negative control, were stored as duplicate glycerol stocks in a 96wp. From this plate duplicate overnight cultures were established in LB supplemented with 0.4% glucose and appropriate antibiotics. […] Overnight cultures were grown for 16-20 h (37° C. 200 rpm) before transfer of 20 μl of each culture into a fresh well containing 130 μL LB supplemented with 115 mM L-Gln, 0.6 mM IPTG and appropriate antibiotics. Assay plates set up in this fashion contained duplicate cultures for each clone from two separate overnights. Assay plates were then wrapped in foil and incubated for 6-24 h (18° C., 200 rpm), depending on activity of improved clones. After incubation cells were collected at the corner of each well by centrifugation and OD 590 values determined using a microplate reader. Assays were repeated at least twice before determination of clones for sequence analysis.
In vivo pigment synthesis efficiencies for recombinant BpsA proteins described in Section 3.2 were derived from three separate assays. This was necessary due to the fact that pigment synthesis of wild type BpsA saturate before activity of mBpsA derivatives was detectable. Replicate cultures for determination of in vivo pigment synthesis activity were established from overnight starter cultures in a 96 wp as described in Section 4.9.3 The values presented are derived as follows: quadruplicate values for WT BpsA and oBpsA (mutant with reduced activity) were determined after 3 h, at which point pigment production was not saturated for WT. A separate quadruplicate assay was then run to obtain a value for slEntF by comparison to oBpsA after 12 h. Quadruplicate values for slPsT and slPvdD2 were then obtained in a separate assay by comparison to slEntF after 12 h.

“And” between values parts separate entries of the source, which are not always exact repeats. Equal entries are not always repeated.

Take “PcpS, phosphopantetheinyl transferase of Pseudomonas aeruginosa PAO1”: in data set [1], the Km (BpsA as variable substrate), BpsA coupled indigoidine assay amounted to 6.5 µM; the kcat (BpsA as variable substrate), BpsA coupled indigoidine assay worked out at 41.2 min⁻¹; the kcat/Km (BpsA as variable substrate), BpsA coupled indigoidine assay was determined as 6.4 min⁻¹ µM⁻¹.

For the molecule “The aryl carrier protein from Nostoc punctiforme protein HetM (npArCP), purified recombinant His6 tagged”, the IC50 (carrier protein competition with BpsA for limiting CoA) turned out to be 8.46 µM in data set [2], 6 µM in data set [3] and 0.14 µM in data set [4]. Besides, the results for the kcat/Km (estimate derived from IC50) (Min^-1 · µM^-1) in data set [2], in data set [3] and in data set [4] were 0.65, 0.19 and 3.51, respectively.

For the molecule “The peptide carrier protein of the Microcysitis aeruginosa NRPS/PKS MycG (mPCP), purified recombinant His6 tagged”, the IC50 (carrier protein competition with BpsA for limiting CoA) is 0.99 µM in data set [2], 0.18 µM in data set [3] and 0.15 µM in data set [4]. In addition, the kcat/Km (estimate derived from IC50) (Min^-1 · µM^-1) is 5.55 in data set [2], 6.3 in data set [3] and 3.33 in data set [4].

As for “The peptide carrier protein of the first module of the Pseudomonas aeruginosa NRPS PvdD (pPCP), puri”, the IC50 (carrier protein competition with BpsA for limiting CoA) was 0.56 µM in data set [2], 0.28 µM in data set [3] and 0.45 µM in data set [4]. Further, the kcat/Km (estimate derived from IC50) (Min^-1 · µM^-1) in data set [2] is 9.84; in data set [3] it was 4.1; in data set [4], 1.11.

For “slDhbF: mBpsA with T-domain from first module of dhbF of B. subtilis; SEQ ID NO: 13”, the “Relative activity (in vivo pigment synthesis relative to wild type BpsA)” value (“Relative activity” below) in data set [5] turned out to be 0%.

B1: slEntF: mBpsA with T-domain from entF gene of E. coli W3110; SEQ ID NO: 11 (protein)
chain: MTLQETSVLEPTLQGTTTLPGLLAQRVAEHPEAIAVAYRDDKLTFRELASRSAALADYLEHLGVSADDCVGLFVEPSIDLMVGAWGILNAGAAYLPLSPEYPEDRLRYMIENSETKIILAQQRLVSRLRELAPKDVTIVTLRESEAFVRPEGTEAPAARSARPDTLAYVIYTSGSTGKPKGVMIEHRSIVNQLGWLRETYAIDRSKVILQKTPMSFDAAQWEILSPANGATVVMGAPGVYADPEGLIETIVKHNVTTLQCVPTLLQGLIDTEKFPECVSLQQIFSGGEALSRLLAIQTTQEMPGRALINVYGPTETTINSSSFPVDPADLDEGPQSISIGSPVHGTTYHILDKETLKPVGVGEIGELYIGGIQLARGYLHRDDLTAERFLEIELEEGAEPVRLYKTGDLGQWNNDGTVQFAGRADNQVKLRGYRVELDEISLAIENHDWVRNAAVIVKNDGRTGFQNLIACIELSEKEAALMDQGNHGSHHASKKSKLQVKAQLSNPGLRDDAELAARPAFDLEGAEPTPEQRARVFARKTYRFYEGGAVTQADLLGLLGATVTAGYSRKAADLAPAELGQILRWFGQYISEERLLPKYGYASPGALYATQMYFELEGVGGLKPGYYYYQPVRHQLVLISEREATGKATAQIHFIGKKSGIEPVYKNNILEVLEIETGHMVGLFEQILPAYGLDIHDRAYEPAVKDLLDVADEDYYLGTFELVPHAGARDDQAEVYVQTHGGKVAGLPEGQYRYENGELTRFSDDIVLKKHVIAINQSVYQAASFGISVYSRAEEEWLKYITLGKKLQHLMMNGLNLGFMSSGYSSKTGNPLPASRRMDAVLGANGVDSAPMYFFVGGRISDEQIGHEGMREDSVHMRGPAELIRDDLVSFLPDYMIPNRVVVFDRLPLSANGKIDVKALAASDQVNAELVERPGRAPKAGSETIIAAAFSSLLGCDVQDADADFFALGGHSLLAMKLAAQLSRQVARQVTPGQVMVASTVAKLATIIDREVAQESSRFVRLHAETGKARPVICWPGLGGYPMNLRSLAGEIGLGRSFYGVQSYGINEGETPYETITEMAKKDIEALKEIQPAGPYTLWGYSFGARVAFETAYQLEQAGEKVDNLFLIAPGSPKVRAENGKVWGREASFANRGYTTILFSVFTGTISGPDLDRCLETVTDEASFAEFISELKGIDVDLARRIISVVGQTYEFEYSFHELAERTLQAPISIFKAVGDDYSFLENSSGYSAEPPTVIDLDADHYSLLREDIGELVKHIRYLLGE
Consider B1, for which, in data set [5], the “Relative activity” value is 5.14% and 5.14 +/− 0.28%.

B2: slPvdD1: mBpsA with T-domain from first module of pvdD of P. aeruginosa PAO1; SEQ ID NO: 5 (protein)
chain: MTLQETSVLEPTLQGTTTLPGLLAQRVAEHPEAIAVAYRDDKLTFRELASRSAALADYLEHLGVSADDCVGLFVEPSIDLMVGAWGILNAGAAYLPLSPEYPEDRLRYMIENSETKIILAQQRLVSRLRELAPKDVTIVTLRESEAFVRPEGTEAPAARSARPDTLAYVIYTSGSTGKPKGVMIEHRSIVNQLGWLRETYAIDRSKVILQKTPMSFDAAQWEILSPANGATVVMGAPGVYADPEGLIETIVKHNVTTLQCVPTLLQGLIDTEKFPECVSLQQIFSGGEALSRLLAIQTTQEMPGRALINVYGPTETTINSSSFPVDPADLDEGPQSISIGSPVHGTTYHILDKETLKPVGVGEIGELYIGGIQLARGYLHRDDLTAERFLEIELEEGAEPVRLYKTGDLGQWNNDGTVQFAGRADNQVKLRGYRVELDEISLAIENHDWVRNAAVIVKNDGRTGFQNLIACIELSEKEAALMDQGNHGSHHASKKSKLQVKAQLSNPGLRDDAELAARPAFDLEGAEPTPEQRARVFARKTYRFYEGGAVTQADLLGLLGATVTAGYSRKAADLAPAELGQILRWFGQYISEERLLPKYGYASPGALYATQMYFELEGVGGLKPGYYYYQPVRHQLVLISEREATGKATAQIHFIGKKSGIEPVYKNNILEVLEIETGHMVGLFEQILPAYGLDIHDRAYEPAVKDLLDVADEDYYLGTFELVPHAGARDDQAEVYVQTHGGKVAGLPEGQYRYENGELTRFSDDIVLKKHVIAINQSVYQAASFGISVYSRAEEEWLKYITLGKKLQHLMMNGLNLGFMSSGYSSKTGNPLPASRRMDAVLGANGVDSAPMYFFVGGRISDEQIGHEGMREDSVHMRGPAELIRDDLVSFLPDYMIPNRVVVFDRLPLSANGKIDVKALAASDQVNAELVERPYRAPGSELEQRIAAIWSEILGVERVGLDDNFFELGGHSLLATRVISRVRQEQQLDASLKALFERPVLEAFAQGLEREVAQESSRFVRLHAETGKARPVICWPGLGGYPMNLRSLAGEIGLGRSFYGVQSYGINEGETPYETITEMAKKDIEALKEIQPAGPYTLWGYSFGARVAFETAYQLEQAGEKVDNLFLIAPGSPKVRAENGKVWGREASFANRGYTTILFSVFTGTISGPDLDRCLETVTDEASFAEFISELKGIDVDLARRIISVVGQTYEFEYSFHELAERTLQAPISIFKAVGDDYSFLENSSGYSAEPPTVIDLDADHYSLLREDIGELVKHIRYLLGE
As to B2, the “In vivo pigment synthesis capacity (qualitative)” value in data set [5] (E. coli with activating PPTase, pigment development agar or broth) was “completely inactive enzyme”. In data set [5], the “Relative activity” value amounted to 0%.

Values taken from patent US20130260436A1, “Methods of Identifying and Characterizing Natural Product Gene Clusters” (Victoria LInk Limited, priority 2010, published 2013).
